# ± gives the uncertainty stated by the source.
# Assay: self-splicing fitness, log relative to wild type (ln ratio); higher = more splicing; Tetrahymena group I intron in knt gene, E. coli kanamycin selection, DiMSum; sequences stand for … in CUCUCU…GGAGGGAAAAGUUAUCAGGCAUGCACCUGGUAGCUAGUCUUUAAACCAAUAGAUUGCAUCGGUUUAAAAGGCAAGACCGUCAAAUUGCGGGAAAGGGGUCAACAGCCGUUCAGUACCAAGUCUCAGGGGAAACUUUGAGAUGGCCUUGCAAAGGGUAUGGUAAUAAGCUGACGGACAUGGUCCUAACCACGCAGCCAAGUCCUAAGUCAACAGAUCUUCUGUUGAUAUGGAUGCAGUUCACAGACUAAAUGUCGGUCGGGGAAGAUGUAUUCUUCUCAUAAGAUAUAGUCGGACCUCUCCUUAAUGGGAGCUAGCGGAUGAAGUGAUGCAACACUGGAGCCGCUGGGAACUAAUUUGUAUGCGAAAGUAUAUUGAUUAGUUUUGGAGUACUCGUGGUCG
# How it was run: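 Pooled colonies went to amplicon sequencing on an Illumina HiSeq 2500 after six replicate transformations. The plates were LB agar with 100 μg/mL carbenicillin, 50 μM IPTG and 0.2% rhamnose, with or without 25 μg/mL kanamycin, incubated overnight at 37°C or 30°C. The E. coli BL21(DE3) library had all eight P1ex-region intron nucleotides randomised, the intron placed in the knt kanamycin-resistance gene on pET-22b(+). DiMSum fitness is the error-weighted combination of replicate fold changes, kanamycin against none, normalised to wild type.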
Sequence,self-splicing fitness (ln) (30 °C),self-splicing fitness (ln) (37 °C)
CUACAGCAAUAUUACGUCUG,-1.77 ± 0.1,-1.45 ± 0.13
AAAAAGCAAUAUUACGAAUC,-2.31 ± 0.21,-2.21 ± 0.23
CAUUAGCAAUAUUACGACAC,-2.3 ± 0.2,-1.89 ± 0.23
UACCAGCAAUAUUACGCAGG,-3.68 ± 0.21,-2.37 ± 0.27
CUUUAGCAAUAUUACGCGGG,-3.35 ± 0.3,-2.31 ± 0.32
GAAGAGCAAUAUUACGUCGU,-2.96 ± 0.21,-2.24 ± 0.21
UCCUAGCAAUAUUACGCCGC,-3.1 ± 0.26,-3.49 ± 0.35
ACACAGCAAUAUUACGAGAA,-3.53 ± 0.37,-2.54 ± 0.24
GUGGAGCAAUAUUACGUGUA,-2.68 ± 0.2,-2.85 ± 0.24
CAUAAGCAAUAUUACGUGGG,-3.38 ± 0.12,-3.49 ± 0.18
UUCCAGCAAUAUUACGACUG,-3.9 ± 0.21,-2.99 ± 0.23
UAAGAGCAAUAUUACGUGCA,-2.09 ± 0.2,-0.84 ± 0.2
CAUGAGCAAUAUUACGGCAU,-3.35 ± 0.34,-2.9 ± 0.47
GCGAAGCAAUAUUACGGAUA,-1.76 ± 0.12,-0.933 ± 0.12
CUAGAGCAAUAUUACGUGUC,-4.02 ± 0.3,-2.88 ± 0.26
AACUAGCAAUAUUACGUAUU,-2.04 ± 0.082,-0.837 ± 0.11
GCGUAGCAAUAUUACGUACU,-2.08 ± 0.15,-0.552 ± 0.17
GACGAGCAAUAUUACGCACC,-3.06 ± 0.15,-0.796 ± 0.12
ACGGAGCAAUAUUACGCUCA,-1.04 ± 0.19,-0.0662 ± 0.3
CCGCAGCAAUAUUACGGCAU,-3.29 ± 0.2,-2.38 ± 0.17
ACUCAGCAAUAUUACGGUUG,-4.32 ± 0.17,-2.77 ± 0.18
UUUUAGCAAUAUUACGCGCG,-0.432 ± 0.11,-0.122 ± 0.15
GUGAAGCAAUAUUACGUAAU,-1.19 ± 0.057,-0.668 ± 0.069
ACAGAGCAAUAUUACGUCGA,-3.1 ± 0.3,-2.73 ± 0.34

Sequence,self-splicing fitness (ln) (30 °C),self-splicing fitness (ln) (37 °C)
UUAAAGCAAUAUUACGCUUU,-4.36 ± 0.35,-1.94 ± 0.24
CUACAGCAAUAUUACGAAGG,-1.22 ± 0.1,-1.49 ± 0.14
GGCAAGCAAUAUUACGAUUC,0.184 ± 0.062,0.142 ± 0.091
GGACAGCAAUAUUACGUUGG,-1.69 ± 0.088,-0.723 ± 0.11
CCCAAGCAAUAUUACGUGUA,-2.85 ± 0.096,-2.3 ± 0.11
GGUCAGCAAUAUUACGAGGA,,-1.73 ± 0.36
UCAUAGCAAUAUUACGGAUA,-1.51 ± 0.23,-2.59 ± 0.33
UACUAGCAAUAUUACGACGU,-2.22 ± 0.1,-1.29 ± 0.12
CCGCAGCAAUAUUACGGACC,-3.45 ± 0.41,
AUUUAGCAAUAUUACGUGAU,-0.978 ± 0.12,-0.863 ± 0.12
GCCCAGCAAUAUUACGCCAA,-3.11 ± 0.14,-1.71 ± 0.1
UGCUAGCAAUAUUACGGUGG,-1.94 ± 0.066,-1.33 ± 0.086
ACGCAGCAAUAUUACGAUGU,-2.13 ± 0.057,-1.16 ± 0.078
CGAAAGCAAUAUUACGCGCC,-1.85 ± 0.21,0.0231 ± 0.24
GUGCAGCAAUAUUACGAAAU,-1.31 ± 0.084,-0.452 ± 0.097
GUUGAGCAAUAUUACGCGCA,-1.02 ± 0.2,-0.636 ± 0.24
ACUUAGCAAUAUUACGCAGC,-1.98 ± 0.4,-1.43 ± 0.19
GGGGAGCAAUAUUACGAUUC,-1.52 ± 0.16,-0.791 ± 0.2
AAUGAGCAAUAUUACGAGAA,-2.17 ± 0.23,-2.03 ± 0.32
CGUAAGCAAUAUUACGGCGU,-2.28 ± 0.15,-1.59 ± 0.23
UCCUAGCAAUAUUACGUUCA,-2.91 ± 0.35,-2.38 ± 0.25
AGUGAGCAAUAUUACGCUCA,,-2.13 ± 0.25
UCGAAGCAAUAUUACGUCUC,-2.49 ± 0.15,-2.28 ± 0.32
CCCGAGCAAUAUUACGGAAA,-2.2 ± 0.32,-1.57 ± 0.33
